Results on 2 molecules are retold here after publication PMC6349121, “Structural insights into non-covalent ubiquitin activation of the cIAP1-UbcH5B∼ubiquitin complex” (The Journal of Biological Chemistry, 2018).

The Kd is the equilibrium constant for the complex coming apart.

The target of data set [1] is T1, UbcH5B S22R C85K covalently linked to Ub (UbcH5B_(S22R)–Ub) (human, UniProt P62837 1-147; P0CG47 1-76, S22R | C85K, Lys85 (C85K) in a stable amide linkage to Ub | covalently linked to Lys85 of UbcH5B S22R C85K (amide linkage)).
T1 construct: UbcH5B, human Ub-conjugating enzyme (E2); ubiquitin (Ub), human, donor Ub; source: E. coli BL21 (DE3) Gold
In words: SPR; as a1, but UbcH5B–Ub variants diluted in running buffer containing 0.6 mM UbΔGG; GST-cIAP1R coupled to a CM-5 chip, 25 °C; steady-state affinity analysis. The following applies: both partners purified. Background: In SPR one partner is held on a chip, and binding of the other changes the refractive index at the surface.

The target in the next data set is T2, UbcH5B (human, UniProt P62837 1-147).
T2 construct: UbcH5B, human Ub-conjugating enzyme (E2), untagged; also called UbcH5B WT
Briefly: SPR; GST-cIAP1R coupled to a CM-5 chip, Biacore T200, 25 °C; analytes diluted in 25 mM Tris-HCl pH 7.6, 150 mM NaCl, 0.1 mg/ml BSA, 1 mM DTT, 0.005% Tween 20; GST alone subtracted; steady-state affinity analysis. The following applies: both partners purified.

The target of data set [2] is T3, UbcH5B C85K covalently linked to Ub (UbcH5B–Ub) (human, UniProt P62837 1-147; P0CG47 1-76, C85K, Lys85 (C85K) in a stable amide linkage to Ub | covalently linked to Lys85 of UbcH5B C85K (amide linkage)).
T3 construct: UbcH5B, human Ub-conjugating enzyme (E2); ubiquitin (Ub), human, donor Ub (Ub^D); the model of 6HPR holds residues 1-76; source: E. coli BL21 (DE3) Gold
The data set is described as above. The following applies: both partners purified.

For data set [3], the target named is T1, UbcH5B S22R C85K covalently linked to …. The description is as above. The conditions noted are these: both partners purified.
Another data set addresses T4, ubiquitin (Ub) (human, UniProt P0CG47 1-76).
T4 construct: ubiquitin (Ub), human; in the model of 6HPR Ub^B is chain B (residues 1-74 seen) and Ub^D chain D (residues 1-76); Free Ub was mixed into the crystallised complex as Ub^B; in the rows on Ub^D it stands for the Ub part of the conjugate m4; also called WT Ub
Briefly: crystal structure; cIAP1R, UbcH5B–Ub and Ub mixed at 1:1:1.2 molar ratio; sitting drop, 0.2 M ammonium fluoride, 15% PEG 3350, 19 °C; 1.7 Å; dimer generated by crystallographic symmetry. The following applies: both partners purified.

Data set [4] deals with the molecule itself. The description is as above.

B1: GST-cIAP1R (cIAP1 RING domain, residues 556-C, with GST) (domain or fragment, human, UniProt Q13490 556-618, looked up)
chain: LSLEEQLRRLQEERTCKVCMDKEVSVVFIPCGHLVVCQECAPSLRKCPICRGIIKGTVRTFLS
notes: pGEX4T1 with a TEV site after GST; the tag is not cleaved in this form; source: E. coli BL21 (DE3) Gold; not shown: GST, N-terminal, kept
On to B1, for which the Kd was 990 ± 50 nM in data set [1], 223000 ± 4000 nM with UbcH5B, 830 ± 50 nM in data set [2] and 900 ± 10 nM in data set [3].

B2: cIAP1 RING domain (residues 556-C; cIAP1R) (domain or fragment, human, UniProt Q13490 556-618, looked up)
chain: LSLEEQLRRLQEERTCKVCMDKEVSVVFIPCGHLVVCQECAPSLRKCPICRGIIKGTVRTFLS
notes: Homodimer through the RING domain; in the crystal the dimer is generated by crystallographic symmetry; also called cIAP1 RING dimer; not shown: GST, N-terminal, cleaved
B2: the binding result (with ubiquitin (Ub); in data set [4]) was “binds” each time.
